Measured values reported in PMC6255862, “A quaternary tetramer assembly inhibits the deubiquitinating activity of USP25” (Nature Communications, 2018).

Key:
[1] = molecular target: the molecule itself; assay: SEC; oligomer state of USP25 point mutants (Supplementary Figures 6 and 11, not shown); by the methods all USP25 constructs were loaded on a Superdex 16 column in 100 mM NaCl, 20 mM Tris-HCl pH 8.0, 1 mM β-mercaptoethanol and run on native PAGE
[2] = molecular target: the molecule itself; assay: crystal structure; lysine-methylated USP25NCD tetramer fraction; space group I422, one molecule per asymmetric unit, tetramer from the crystal lattice; 3.28 Å

Protein	stoichiometry N [1]	stoichiometry N [2]
USP25NCD L271W (enzyme, human, UniProt Q9UHP3 18-714, looked up, The methods speak of 'USP25NCD point mutants'; not shown: Smt3, N-terminal, cleaved) QTFLNQLREITGINDTQILQQALKDSNGNLELAVAFLTAKNAKTPQQEETTYYQTALPGNDRYISVGSQADTNVIDLTGDDKDDLQRAIALSLAESNRAFRETGITDEEQAISRVLEASIAENKACLKRTPTEVWRDSRNPYDRKRQDKAPVGLKNVGNTCWFSAVIQSLFNLLEFRRLVLNYKPPSNAQDLPRNQKEHRNLPFMRELRYLFALLVGTKRKYVDPSRAVEILKDAFKSNDSQQQDVSEFTHKLWDWLEDAFQMKAEEETDEEKPKNPMVELFYGRFLAVGVLEGKKFENTEMFGQYPLQVNGFKDLHECLEAAMIEGEIESLHSENSGKSGQEHWFTELPPVLTFELSRFEFNQALGRPEKIHNKLEFPQVLYLDRYMHRNREITRIKREEIKRLKDYLTVLQQRLERYLSYGSGPKRFPLVDVLQYALEFASSKPVCTSPVDDIDASSPPSGSIPSQTLPSTTEQQGALSSELPSTSPSSVAAISSRSVIHKPFTQSRIPPDLPMHPAPRHITEEELSVLESCLHRWRTEIENDTRDLQESISRIHRTIELMYSDKSMIQVPYRLHAVLVHEGQANAGHYWAYIFDHRESRWMKYNDIAVTKSSWEELVRDSFGGYRNASAYCLMYINDKAQFLIQEEFNKETGQPLVGIETLPPDLRDFVEEDNQRFEKELEEWDAQLAQKALQE	4	
USP25NCD, lysine-methylated (tetramer fraction used for crystallization) (enzyme, human, UniProt Q9UHP3 18-714, looked up, lysines methylated (borane-dimethylamine complex and formaldehyde), USP25, human, residues 18-714 of the 1055-residue protein; Model holds Tyr159 to Ala708; NTD (18-158) and several loops (205-214, 256-260, 346-354, 471-515, 671-677) are not seen; also called USP25NCD tetramer; lysine methylated USP25NCD; not shown: Smt3, N-terminal, cleaved) QTFLNQLREITGINDTQILQQALKDSNGNLELAVAFLTAKNAKTPQQEETTYYQTALPGNDRYISVGSQADTNVIDLTGDDKDDLQRAIALSLAESNRAFRETGITDEEQAISRVLEASIAENKACLKRTPTEVWRDSRNPYDRKRQDKAPVGLKNVGNTCWFSAVIQSLFNLLEFRRLVLNYKPPSNAQDLPRNQKEHRNLPFMRELRYLFALLVGTKRKYVDPSRAVEILKDAFKSNDSQQQDVSEFTHKLLDWLEDAFQMKAEEETDEEKPKNPMVELFYGRFLAVGVLEGKKFENTEMFGQYPLQVNGFKDLHECLEAAMIEGEIESLHSENSGKSGQEHWFTELPPVLTFELSRFEFNQALGRPEKIHNKLEFPQVLYLDRYMHRNREITRIKREEIKRLKDYLTVLQQRLERYLSYGSGPKRFPLVDVLQYALEFASSKPVCTSPVDDIDASSPPSGSIPSQTLPSTTEQQGALSSELPSTSPSSVAAISSRSVIHKPFTQSRIPPDLPMHPAPRHITEEELSVLESCLHRWRTEIENDTRDLQESISRIHRTIELMYSDKSMIQVPYRLHAVLVHEGQANAGHYWAYIFDHRESRWMKYNDIAVTKSSWEELVRDSFGGYRNASAYCLMYINDKAQFLIQEEFNKETGQPLVGIETLPPDLRDFVEEDNQRFEKELEEWDAQLAQKALQE		4
